Experimental data from patent publication US20250002610A1 (Genmab, published 2025).

What was measured:
[1] = target: T1, cynomolgus monkey FAPα on Expi293F cells (cynomolgus monkey (Macaca fascicularis), UniProt Q12884 1-760 (human entry)); experiment: flow cytometry, Expi293F cells expressing cynomolgus monkey FAPα, n = 2
T1 sequence: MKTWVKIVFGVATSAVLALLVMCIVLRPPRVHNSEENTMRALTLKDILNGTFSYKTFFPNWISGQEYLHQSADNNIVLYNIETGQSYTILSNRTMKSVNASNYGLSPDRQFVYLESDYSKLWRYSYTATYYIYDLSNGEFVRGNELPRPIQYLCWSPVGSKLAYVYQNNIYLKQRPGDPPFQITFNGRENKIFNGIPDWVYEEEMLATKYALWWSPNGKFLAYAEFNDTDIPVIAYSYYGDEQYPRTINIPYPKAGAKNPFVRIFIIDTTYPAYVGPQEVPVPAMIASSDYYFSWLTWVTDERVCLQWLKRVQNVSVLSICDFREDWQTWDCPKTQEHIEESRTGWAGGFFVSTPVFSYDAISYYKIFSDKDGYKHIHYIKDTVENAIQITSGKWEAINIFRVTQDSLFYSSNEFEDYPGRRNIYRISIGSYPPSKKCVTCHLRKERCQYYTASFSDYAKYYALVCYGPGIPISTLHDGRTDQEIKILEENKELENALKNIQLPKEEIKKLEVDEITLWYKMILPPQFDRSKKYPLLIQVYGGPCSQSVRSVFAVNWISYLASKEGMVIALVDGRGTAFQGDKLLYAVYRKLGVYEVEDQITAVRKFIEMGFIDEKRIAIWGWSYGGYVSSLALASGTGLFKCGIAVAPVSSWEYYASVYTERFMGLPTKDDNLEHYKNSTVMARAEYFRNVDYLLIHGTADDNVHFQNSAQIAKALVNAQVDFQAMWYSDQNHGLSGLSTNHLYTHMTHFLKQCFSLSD
Description: (§1) Binding of BisG1-FAPα-FERL/DR4-FERR, BisG1-FAPα-FEAL/b12-FEAR and IgG1-FAPα-FERL to FAPα of species commonly used for nonclinical toxicology studies was assessed by flow cytometry using Expi293F cells transiently expressing FAPα from different animal species. IgG1-b12 was included as negative control.
(§2) Expi293F cells expressing recombinant FAPα from various species (human, cynomolgus monkey, dog, pig, rat or mouse) were seeded (20,000 cells/well) in 96-Well round bottom plates (Greiner Bio-one, Cat #650101). Antibody dilutions were prepared using FACS buffer, consisting of PBS (Capricorn Scientific, Cat #PBS-10XA, diluted to 1×PBS in distilled water)+1% BSA (Roche, Cat #10735086001)+0.02% Sodium Azide (Bio-World, Cat #41920044-3). Plates were centrifuged, supernatant was removed, and cells were resuspended in 100 μL of antibody dilutions (concentration range 30-0.00017 μg/mL with three-fold serial dilutions using FACS buffer) of BisG1-FAPα-FERL/DR4-FERR, BisG1-FAPα-FEAL/b12-FEAR, IgG1-FAPα-FERL and IgG1-b12 and incubated for 30 min at 4° C. […] After 30 min incubation at 4° C., cells were washed with FACS buffer and resuspended in FACS buffer supplemented with TO-PRO-3 Iodide viability marker (Invitrogen, Cat #T3605, diluted 1:4,000). Antibody binding to viable cells (gMFI of PE on TO-PRO-3 negative cells) was analyzed by flow cytometry on a FACS Celesta and FACS_Diva software (first two experiments) or iQue® 3 and FlowJo software (last experiment). gMFI was determined and visualized using GraphPad Prism. Binding curves were analyzed using nonlinear regression analysis. The concentration (pg/mL) at which 50% of the maximal effect was observed (EC₅₀) was derived from the fitted curves.

[2] = target: T2, human DR4 (Death Receptor 4), cell surface expressed on human tumor cell lines (human, UniProt O00220 24-468); experiment: flow cytometry, A549 cells, n = 1
T2 construct: also called TNFRSF10A; TRAIL-R1
T2 sequence: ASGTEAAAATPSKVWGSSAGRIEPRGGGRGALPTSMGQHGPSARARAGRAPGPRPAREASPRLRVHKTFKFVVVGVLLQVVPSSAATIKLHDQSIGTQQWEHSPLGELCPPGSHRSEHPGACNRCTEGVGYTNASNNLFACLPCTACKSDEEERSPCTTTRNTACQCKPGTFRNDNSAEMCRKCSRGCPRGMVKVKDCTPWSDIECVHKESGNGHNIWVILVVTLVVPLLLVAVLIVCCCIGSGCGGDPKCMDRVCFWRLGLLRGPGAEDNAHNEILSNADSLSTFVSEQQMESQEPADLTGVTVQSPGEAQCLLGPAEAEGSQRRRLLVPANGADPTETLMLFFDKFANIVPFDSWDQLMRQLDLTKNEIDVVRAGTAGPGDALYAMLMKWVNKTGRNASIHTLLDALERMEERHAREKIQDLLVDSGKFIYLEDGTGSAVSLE

[3] = target: T3, dog FAPα on Expi293F cells (dog (Canis familiaris), UniProt A5D7B7 1-760 (bovine entry)); experiment: flow cytometry on Expi293F cells transiently expressing dog FAPα, gMFI PE
T3 chain: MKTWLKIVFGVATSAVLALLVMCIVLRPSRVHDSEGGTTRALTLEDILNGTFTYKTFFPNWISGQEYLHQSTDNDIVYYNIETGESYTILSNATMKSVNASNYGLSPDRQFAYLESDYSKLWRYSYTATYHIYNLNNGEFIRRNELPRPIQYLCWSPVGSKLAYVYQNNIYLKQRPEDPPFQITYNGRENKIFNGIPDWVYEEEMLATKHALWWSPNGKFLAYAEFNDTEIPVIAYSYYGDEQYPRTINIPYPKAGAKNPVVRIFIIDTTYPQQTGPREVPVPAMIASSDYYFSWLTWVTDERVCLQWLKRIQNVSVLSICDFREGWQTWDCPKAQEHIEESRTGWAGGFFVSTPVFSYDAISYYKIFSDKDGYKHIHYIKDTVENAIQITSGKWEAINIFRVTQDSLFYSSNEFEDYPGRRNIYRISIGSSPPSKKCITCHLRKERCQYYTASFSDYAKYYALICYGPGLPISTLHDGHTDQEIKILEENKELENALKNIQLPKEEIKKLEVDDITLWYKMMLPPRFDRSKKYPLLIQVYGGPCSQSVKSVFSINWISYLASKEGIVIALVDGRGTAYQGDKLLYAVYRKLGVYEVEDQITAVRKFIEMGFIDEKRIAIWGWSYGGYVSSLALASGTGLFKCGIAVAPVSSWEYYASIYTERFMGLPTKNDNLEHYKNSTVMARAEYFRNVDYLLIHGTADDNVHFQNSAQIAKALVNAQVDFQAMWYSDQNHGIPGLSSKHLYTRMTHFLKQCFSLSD
Description: as §1, §2

[4] = target: T1, cynomolgus monkey FAPα on Expi293F cells; experiment: flow cytometry, Expi293F cells expressing cynomolgus monkey FAPα, n = 3
Description: as §1, §2

B1: BisG1-FAPα-FERL/DR4-FERR (bispecific antibody, human IgG1, kappa, lambda)
heavy 1: EVQLLESGGGLVQPGGSPRLSCEASGFTFSSYALSWVRQAPGKGLEWVSAISGSGGGRYYADSVKGRFTISRDNSKNTLFLQMNSLRAEDTAVYYCAKEGYSSSGTYWDHWGQGTLVTVSSASTKGPSVFPLAPSSKSTSGGTAALGCLVKDYFPEPVTVSWNSGALTSGVHTFPAVLQSSGLYSLSSVVTVPSSSLGTQTYICNVNHKPSNTKVDKRVEPKSCDKTHTCPPCPAPEFERGPSVFLFPPKPKDTLMISRTPEVTCVVVDVSHEDPEVKFNWYVDGVEVHNAKTKPREEQYNSTYRVVSVLTVLHQDWLNGKEYKCKVSNKALPAPIEKTISKAKGQPREPQVYTLPPSREEMTKNQVSLTCLVKGFYPSDIAVEWESNGQPENNYKTTPPVLDSDGSFLLYSKLTVDKSRWQQGNVFSCSVMHEALHNHYTQKSLSLSPG
light 1: AIQMTQSPSSVSASVGDRVTITCRASQGVSSWLAWYQQKPGRAPKLLIYVASTLQSGVPSRFSGSGSGTDFTLTINSLQPEDFATYYCQQANSFPPTFGQGTRLEMKRTVAAPSVFIFPPSDEQLKSGTASVVCLLNNFYPREAKVQWKVDNALQSGNSQESVTEQDSKDSTYSLSSTLTLSKADYEKHKVYACEVTHQGLSSPVTKSFNRGEC
heavy 2: QVQLQESGPGLVKPSGTLSLTCAVSGGSISSYSWWSWIRQPPGKGLEWIGELYHSGSTNYNPSLKSRVTISVDKSKNQFSLKLRSVTAADTAVYYCVRGVATIDYWGQGTLVTVSSASTKGPSVFPLAPSSKSTSGGTAALGCLVKDYFPEPVTVSWNSGALTSGVHTFPAVLQSSGLYSLSSVVTVPSSSLGTQTYICNVNHKPSNTKVDKRVEPKSCDKTHTCPPCPAPEFERGPSVFLFPPKPKDTLMISRTPEVTCVVVDVSHEDPEVKFNWYVDGVEVHNAKTKPREEQYNSTYRVVSVLTVLHQDWLNGKEYKCKVSNKALPAPIEKTISKAKGQPREPQVYTLPPSREEMTKNQVSLTCLVKGFYPSDIAVEWESNGQPENNYKTTPPVLDSDGSFFLYSRLTVDKSRWQQGNVFSCSVMHEALHNHYTQKSLSLSPG
light 2: QSALTQPPSASGSPGQSVTISCTGTSSDVGGYNFVSWYQQDPGKAPKLLIYEVTKRPSGVPDRFSGSKSGNTASLTVSGLQAEDEADYYCSSYAGSNNVMFGGGTKLTVLGQPKAAPSVTLFPPSSEELQANKATLVCLISDFYPGAVTVAWKADSSPVKAGVETTTPSKQSNNKYAASSYLSLTPEQWKSHRSYSCQVTHEGSTVEKTVAPTECS
notes: Human IgG1 bispecific made by controlled Fab-arm exchange of IgG1-FAPα-FERL and IgG1-DR4-FERR; monovalent for FAPα and for DR4; also called GEN1057
- EC50 [1]: 0.36 µg/mL
- EC50 [2]: 0.86 µg/mL
- binding result [3]: binds
- EC50 [4]: 0.16 µg/mL
